We go through seven compounds from PMC5750218, “Protein-inspired antibiotics active against vancomycin- and daptomycin-resistant bacteria” (Nature Communications, 2018).

One data set relates to S. aureus ATCC 43300. Nature of the data set: Membrane depolarisation assay (diSC3(5)). It counts as cell-based, Staphylococcus aureus. The conditions noted are these: 16 µg mL^−1, 30 min, MRSA ATCC 43300. The protocol: Antibiotic-induced bacterial cytoplasmic membrane depolarisation was determined using the fluorescent dye 3,3-dipropylthiacarbocyanine diSC3(5) (Sigma Aldrich, Australia) as previously described. Briefly, early exponential phase cells were pelleted and washed twice in 10 mM HEPES buffer (pH 7.4) containing 50 µg mL^−1 of CaCl2 and 5 mM Glucose, and then re-suspended in the same buffer (2 × 10^8 CFU mL^−1). diSC3(5) was added to a final concentration of 1.5 µM and incubated at room temperature in the dark to enable dye uptake and fluorescence quenching. After 30 min, cells were diluted 50-fold in assay buffer and 45 µL of cells were added to a 384-well black walled polystyrene plate (Corning, CLS3573) (Note: NBS plates were not employed, and no polysorbate-80 was added to avoid potential effects on membrane permeability, or interference with fluorescence as previously reported. The MICs of compounds in polystyrene plates are listed in Supplementary Table 12). Background data was collected before adding compounds using a Tecan Infinite® m1000 Pro Multi-mode reader (excitation/emission 612/665 nm) to ensure fluorescence quenching. Compounds were added to a final concentration of 16 µg mL^−1 and fluorescence was monitored for 30 min. Data were corrected by subtraction of background response (diSC3(5) in the presence of untreated cells, no compound). […] Each sample was tested in quadruplicate and independent assays were performed twice showing similar results. Data were analysed and presented using Prism software.

The subject of data set [1] is S. aureus ATCC 43300 MRSA. Nature of the data set: microbe, parasite or virus in culture. It counts as cell-based, Staphylococcus aureus. The protocol:
(§1) The compounds, along with standard antibiotics were serially diluted twofold across the wells of 96-well non-binding surface (NBS) polystyrene plates (Corning 3641). […] Standards ranged from 64 to 0.03 µg mL^−1 and compounds from 8 to 0.003 µg mL^−1 with final assay volumes of 100 µL per well. Gram-positive bacteria were cultured in Mueller Hinton broth (MHB) (Bactolaboratories, Cat. no. 211443) at 37 °C overnight. A sample of each culture was then diluted 40-fold in fresh MHB and incubated at 37 °C for 2–3 h. The resultant mid-log phase cultures were added to the compound-containing 96-well plates to give a final cell density of 5 × 10^5 colony forming unit (CFU) mL^−1. All the plates were covered and incubated at 37 °C for 24 h. MICs were the lowest concentration showing no visible growth.

The subject of data set [2] is S. pneumoniae ATCC 700677 MDR. Briefly: microbe, parasite or virus in culture. It counts as cell-based, Streptococcus pneumoniae. As to the method: as §1
The subject of a further data set is S. pneumoniae ATCC 33400. Briefly: microbe, parasite or virus in culture. It counts as cell-based, Streptococcus pneumoniae. The protocol: as §1
The next data set can be described thus: Haemolysis assay. The format is cell-based. The conditions noted are these: human, whole blood. The protocol:
Haemolytic activity was measured as previously described with slight modifications, [45]. Fresh human venal blood was collected from healthy volunteers and pretreated with the anticoagulant sodium citrate. Serial twofold dilutions of each antibiotic, dissolved in 0.9% NaCl solution, were added to fresh human whole blood (50% final, vol:vol) to the final volume of 80 μL and incubated at 37 °C for 3 h on a horizontal shaker at 200 rpm. For negative and positive controls, human whole blood in 0.9% NaCl solution (A blank) and in sdH2O (A water) were used, respectively. After incubation, both test and A blank were mixed with 1 mL 0.9% NaCl solution, or sdH2O for the complete […] A water. After centrifugation of samples at 2500 rpm (700 × g) for 5 min, the release of haemoglobin was monitored by measuring the absorbance (A sample) of the supernatant at 540 nm using BMG Labtech PolarStar Omega multimode reader. The percentage of haemolysis was calculated according to the equation: %haemolysis=Asample-Ablank∕Awater-Ablank×100

The next data set in a line: Cytotoxicity MTT assay. It counts as cell-based, human. The conditions noted are these: human.
The conditions of data set [3]: 37 °C, 20 µM.
Experimental: Briefly, test compounds (20 μM) were prepared from a 0.2 mM H2O stock solution (40 μL in 400 μL assay volume) except eucatropine, which was 300 μg mL^−1 in 100% DMSO (10 μL in 400 μL assay volume equivalent to 23 μM). The precipitating solution was prepared by adding 5 μL of 10 mM carbutamide in DMSO to 100 mL acetonitrile (final concentration: 135.5 ng mL^−1 or 0.5 μM carbutamide). The human plasma sample (pooled normal human plasma sodium heparin anticoagulant, 2 µL, Cat No.: [sequence], BioReclamation) and phosphate-buffer saline (PBS, pH 7.4 isotonic) were pre-heated at 37 °C for 30 min. 40 μL of test compounds (0.2 mM) were added to protein-low binding Eppendorf tubes, 160 μL of buffer was added, and the mixture was vortexed. For eucatropine, 10 μL of eucatropine (300 μg mL^−1) was added to a protein-low binding Eppendorf tube, 190 μL of buffer was added, and the mixture was vortexed. In each case, 200 μL of plasma was added and the resultant mixture vortexed. For the initial time point (reaction time t = 0 h), 50 μL of sample was immediately transferred into a protein-low binding Eppendorf tube and quenched with 150 μL of the ice-cold precipitating solution, followed by vortexing and subsequent storage at 4 °C. For the remaining time points, the plasma solution was incubated and shaken (150 rpm) at 37 °C. 50 μL aliquots were collected at time points of 0, 1, 3, 6 and 24 h and quenched with 150 μL the ice-cold precipitating solution. All samples were placed in a 4 °C fridge for 30 min then centrifuged at 14,000 × g for 8 min at 4 °C. The supernatant (100 μL) was transferred to a glass vial insert and stored at 4 °C until LC-MS/MS analysis. The percentage of test compounds remaining at the individual time points relative to sample at time point 0 h were reported.

Converted amounts (≈) assume the structure as drawn. Where two headings read alike, the source gives them in different places.

In the case of `CN[C@H]1C(=O)N[C@@H]2Cc3ccc(cc3)Oc3cc4cc(c3O[C@@H]3O[C@H](C(=O)O)[C@@H](O)[C@H](O)[C@H]3NC(=O)CCCCCCCCC(C)C)Oc3ccc(cc3Cl)[C@@H](O)[C@@H]3NC(=O)[C@H](NC(=O)[C@@H]4NC(=O)[C@@H](NC2=O)c2cc(cc(O)c2Cl)Oc2cc1ccc2O)c1ccc(O)c(c1)-c1c(O[C@H]2O[C@H](CO)[C@@H](O)[C@H](O)[C@@H]2O)cc(O)cc1[C@@H](C(=O)NCCCN(C)C)NC3=O` [Compound 3, Dalbavancin], the “Dissipation of membrane potential (diSC3(5) fluorescence)” value in the data set on S. aureus ATCC 43300 is recorded as “no effect”. Also, the “MIC S. aureus ATCC 43300 MRSA” value in data set [1] (1% Survanta) came to 0.06 µg/mL (≈ 0.033 µM); in data set [1] (5% Survanta), 0.125 µg/mL (≈ 0.0688 µM). In addition, the “MIC S. pneumoniae ATCC 700677 MDR” value in data set [2] (1% Survanta) and in data set [2] (no added Survanta) was 0.06 µg/mL (≈ 0.033 µM) throughout. Further, the “MIC S. pneumoniae ATCC 33400” value against S. pneumoniae ATCC 33400 (1% Survanta) was determined as 0.06 µg/mL (≈ 0.033 µM); against S. pneumoniae ATCC 33400 (5% Survanta) it was 0.125 µg/mL (≈ 0.0688 µM); against S. pneumoniae ATCC 33400 (no added Survanta), 0.06 µg/mL (≈ 0.033 µM).
Regarding `CCCCCCCCCCCCCC(=O)N[C@@H](CCCCN)C(=O)N[C@@H](CCCCN)C(=O)N[C@@H](CCCCN)C(=O)N[C@@H](CCCCNC(=O)[C@H]1NC(=O)[C@H]2NC(=O)[C@H](NC(=O)[C@@H]3NC(=O)[C@H](CC(N)=O)NC(=O)[C@H](NC(=O)[C@@H](CC(C)C)NC)[C@H](O)c4ccc(c(Cl)c4)Oc4cc3cc(c4O[C@@H]3O[C@H](CO)[C@@H](O)[C@H](O)[C@H]3O[C@H]3C[C@](C)(N)[C@H](O)[C@H](C)O3)Oc3ccc(cc3Cl)[C@H]2O)c2ccc(O)c(c2)-c2c(O)cc(O)cc21)C(=O)O` [Compound 17, nC13CO-KKK-K(Vancomycin)-OH], the hemolysis at 3 h amounted to 0.15% in “Haemolysis assay” (25 µg mL-1); 0.75% in the data set “Haemolysis assay” (50 µg mL-1); 0.65% in “Haemolysis assay” (100 µg mL-1); 0.85% in “Haemolysis assay” (200 µg mL-1); 0.5% in the data set “Haemolysis assay” (400 µg mL-1); 1% in “Haemolysis assay” (800 µg mL-1). The same compound yielded a hemolysis at 3 h in “Haemolysis assay” (1600 µg mL-1) of 1.55%. In the data set “Cytotoxicity MTT assay”, this compound yielded a CC50 at 24 h of 15 µM. Further, the “% compound remaining after incubation in 50% human plasma, 0h” value (shortened to “% compound remaining after incubation”) in data set [3] was determined as 100%.
`CCCCCCCCCCC(=O)N[C@@H](CCCCN)C(=O)N[C@@H](CCCCN)C(=O)N[C@@H](CCCCNC(=O)[C@H]1NC(=O)[C@H]2NC(=O)[C@H](NC(=O)[C@@H]3NC(=O)[C@H](CC(N)=O)NC(=O)[C@H](NC(=O)[C@@H](CC(C)C)NC)[C@H](O)c4ccc(c(Cl)c4)Oc4cc3cc(c4O[C@@H]3O[C@H](CO)[C@@H](O)[C@H](O)[C@H]3O[C@H]3C[C@](C)(N)[C@H](O)[C@H](C)O3)Oc3ccc(cc3Cl)[C@H]2O)c2ccc(O)c(c2)-c2c(O)cc(O)cc21)C(=O)O` [Compound 19, nC10CO-KK-K(Vancomycin)-OH]: the hemolysis at 3 h came out at 0.7% in the data set “Haemolysis assay” (100 µg mL-1) and 0.5% in “Haemolysis assay” (1600 µg mL-1). For the same compound, the 50% cytotoxic concentration (CC50) at 24 h in the data set “Cytotoxicity MTT assay” was 290 µM.
In the data set “Cytotoxicity MTT assay”, `CNC(=O)[C@H](CCCCNC(=O)[C@H]1NC(=O)[C@H]2NC(=O)[C@H](NC(=O)[C@@H]3NC(=O)[C@H](CC(N)=O)NC(=O)[C@H](NC(=O)[C@@H](CC(C)C)NC)[C@H](O)c4ccc(c(Cl)c4)Oc4cc3cc(c4O[C@@H]3O[C@H](CO)[C@@H](O)[C@H](O)[C@H]3O[C@H]3C[C@](C)(N)[C@H](O)[C@H](C)O3)Oc3ccc(cc3Cl)[C@H]2O)c2ccc(O)c(c2)-c2c(O)cc(O)cc21)NC(=O)[C@H](CCCCN)NC(=O)[C@H](CCCCN)NC(=O)[C@H](CCCCNC(=O)c1ccc(Oc2ccccc2)cc1)NC(=O)c1ccc(Oc2ccccc2)cc1` [Compound 24, POB2K-KK-K(Vancomycin)-NHMe] returned a CC50 at 24 h of 100 µM. The “% compound remaining after incubation” value in data set [3] was 100%. Further, the “MIC S. pneumoniae ATCC 700677 MDR” value in data set [2] (5% Survanta) is 0.25 µg/mL (≈ 0.106 µM); in data set [2] (no added Survanta), at most 0.003 µg/mL.
Consider `CCCCCCCCCCC(=O)N[C@@H](CCCCN)C(=O)N[C@@H](CCCCN)C(=O)N[C@@H](CCCCN)C(=O)N[C@@H](CCCCNC(=O)[C@H]1NC(=O)[C@H]2NC(=O)[C@H](NC(=O)[C@@H]3NC(=O)[C@H](CC(N)=O)NC(=O)[C@H](NC(=O)[C@@H](CC(C)C)NC)[C@H](O)c4ccc(c(Cl)c4)Oc4cc3cc(c4O[C@@H]3O[C@H](CO)[C@@H](O)[C@H](O)[C@H]3O[C@H]3C[C@](C)(N)[C@H](O)[C@H](C)O3)Oc3ccc(cc3Cl)[C@H]2O)c2ccc(O)c(c2)-c2c(O)cc(O)cc21)C(=O)O` [Compound 18, nC10CO-KKK-K(Vancomycin)-OH], for which the hemolysis at 3 h came to 1.4% in “Haemolysis assay” (100 µg mL-1) and 1.2% in the data set “Haemolysis assay” (1600 µg mL-1). The compound further showed a CC50 at 24 h in “Cytotoxicity MTT assay” of 106 µM. For the same compound, in data set [3], the “% compound remaining after incubation” value is on record as 100%.
Consider `CCCCCCCCCCC(=O)N[C@@H](CCCCN)C(=O)N[C@@H](CCCCN)C(=O)N[C@@H](CCCCNC(=O)[C@H]1NC(=O)[C@H]2NC(=O)[C@H](NC(=O)[C@@H]3NC(=O)[C@H](CC(N)=O)NC(=O)[C@H](NC(=O)[C@@H](CC(C)C)NC)[C@H](O)c4ccc(c(Cl)c4)Oc4cc3cc(c4O[C@@H]3O[C@H](CO)[C@@H](O)[C@H](O)[C@H]3O[C@H]3C[C@](C)(N)[C@H](O)[C@H](C)O3)Oc3ccc(cc3Cl)[C@H]2O)c2ccc(O)c(c2)-c2c(O)cc(O)cc21)C(N)=O` [Compound 21, nC10CO-KK-K(Vancomycin)-NH2], for which the midpoint of cytotoxicity in the data set “Cytotoxicity MTT assay”, the CC50 at 24 h, lay at 131 µM. The “MIC S. aureus ATCC 43300 MRSA” value was 0.007 µg/mL (≈ 0.0035 µM) in data set [1] (1% Survanta), 0.03 µg/mL (≈ 0.015 µM) in data set [1] (5% Survanta) and 0.015 µg/mL (≈ 0.0075 µM) in data set [1] (no added Survanta).
Take `CN[C@H](CC(C)C)C(=O)N[C@H]1C(=O)N[C@@H](CC(N)=O)C(=O)N[C@H]2C(=O)N[C@H]3C(=O)N[C@H](C(=O)N[C@H](C(=O)O)c4cc(O)cc(O)c4-c4cc3ccc4O)[C@H](O[C@H]3C[C@](C)(N)[C@@H](O)[C@H](C)O3)c3ccc(c(Cl)c3)Oc3cc2cc(c3O[C@@H]2O[C@H](CO)[C@@H](O)[C@H](O)[C@H]2O[C@H]2C[C@](C)(NCc3ccc(-c4ccc(Cl)cc4)cc3)[C@@H](O)[C@H](C)O2)Oc2ccc(cc2Cl)[C@H]1O` [Compound 5, Oritavancin, reference compound]: the CC50 at 24 h in the data set “Cytotoxicity MTT assay” (24 h, MTT, 1% FBS, read-out: Cytotoxicity CC50 HepG2) was 25 µM.
